Results published in patent US20240408238A1.

Target: Nme2Cas9 expressed from plasmid in HEK293T cells (human-codon-optimized, NLSs and 3xHA tag) (Neisseria meningitidis strain De11444)
Experiment: cell-based or functional assay

Substance	genome editing in HEK293T cells at varied ratios of Acr plasmid to Cas9 plasmid: ratio giving full inhibition (mass ratio Acr plasmid:Nme2Cas9 plasmid)
AcrIIC1Nme	2
AcrIIC4Hpa	1
